Measured values as given in patent publication US20240010750A1 (Bayer, published 2024).

What was measured:
[1] = target: T1, rabbit alpha2-Antiplasmin (rabbit (Oryctolagus cuniculus)); assay: ELISA (Example 3): antigen coated at 1 ug/ml, detection with anti-human lambda light chain-peroxidase and Amplex Red, RFU [right panel]
T1 construct: Made in house in HEK293 cells, purified by Ni-IMAC and SEC (a His tag is implied but not described); also called rabbit A2AP; Oryctolagus cuniculus A2AP
T1 chain: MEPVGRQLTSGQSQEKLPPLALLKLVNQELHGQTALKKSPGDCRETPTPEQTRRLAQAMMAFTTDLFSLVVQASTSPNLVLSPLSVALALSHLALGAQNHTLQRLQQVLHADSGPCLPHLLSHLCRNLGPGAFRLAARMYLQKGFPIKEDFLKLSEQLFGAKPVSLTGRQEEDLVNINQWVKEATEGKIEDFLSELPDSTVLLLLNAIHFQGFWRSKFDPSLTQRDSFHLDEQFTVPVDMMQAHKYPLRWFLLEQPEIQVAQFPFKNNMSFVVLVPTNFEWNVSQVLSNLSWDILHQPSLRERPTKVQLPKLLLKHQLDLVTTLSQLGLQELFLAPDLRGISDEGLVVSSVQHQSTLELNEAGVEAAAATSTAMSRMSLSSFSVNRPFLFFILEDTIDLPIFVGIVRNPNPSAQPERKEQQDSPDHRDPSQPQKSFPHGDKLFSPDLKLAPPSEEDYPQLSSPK
Method: (§1) A standard ELISA format was used for analyzing the binding affinity of Fabs of this invention to human and rabbit alpha-2-Antiplasmin, respectively. Antigens were coated to black 384 well Maxisorp microtiter plates (Nunc; catalogue number 460518), diluted to a concentration of 1 μg/ml in 1× Coating Buffer (Candor Bioscience; catalogue number 121125). Plates were incubated overnight at 4° C. After overnight incubation, plates were washed 2× with 50 μl/well using PBS+0.05% Tween 20. Following this, 50 μl/well of blocking buffer (Smart Block; Candor Bioscience; catalogue number 113500) was added and the plates were incubated for 1 hour at room temperature. Afterwards, plates were washed for 3× using […] PBS+0.05% Tween 20 buffer. Fabs of this invention were added at different concentrations in a final volume of 30 μl/well. Plates were incubated for 1 hour at room temperature. Following this incubation step, plates were washed for 3× using 50 μl/well of a PBS+0.05% Tween 20 buffer. For the detection of bound Fabs and full-length antibodies, the anti-Human Lambda Light Chains (Bound and Free)—Peroxidase antibody (Sigma; catalogue number A5175) was diluted by the factor of 1:10.000 in 10% Blocking Buffer. […]
(§2) For measurement, the Infinite f500 reader (Tecan) was used. Measurement mode: Fluorescence; Top reading; Ex 535 nm; Em 590 nm.

human alpha2-Antiplasmin = target: T2, human alpha2-Antiplasmin (human, UniProt P08697 40-491); assay: ELISA, coated antigen, 3rd exp.
T2 construct: Bought (antibodies online, ABIN2544306); also called human A2AP; a2AP
T2 sequence: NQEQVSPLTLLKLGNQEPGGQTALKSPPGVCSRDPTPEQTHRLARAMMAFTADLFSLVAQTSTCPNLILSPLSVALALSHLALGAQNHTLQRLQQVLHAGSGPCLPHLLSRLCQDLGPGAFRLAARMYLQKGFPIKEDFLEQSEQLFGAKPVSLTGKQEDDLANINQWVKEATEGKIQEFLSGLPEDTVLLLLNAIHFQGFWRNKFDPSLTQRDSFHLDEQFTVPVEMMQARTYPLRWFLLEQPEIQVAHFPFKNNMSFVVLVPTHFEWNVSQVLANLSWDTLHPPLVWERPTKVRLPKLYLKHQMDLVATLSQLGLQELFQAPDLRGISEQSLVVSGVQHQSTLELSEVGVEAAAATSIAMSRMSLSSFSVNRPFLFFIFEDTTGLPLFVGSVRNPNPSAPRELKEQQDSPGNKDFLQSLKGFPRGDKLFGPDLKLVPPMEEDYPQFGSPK
Method: as §1, §2

[2] = target: T1, rabbit alpha2-Antiplasmin; assay: ELISA, coated antigen, 3rd exp.
Method: as §1, §2

[3] = target: T3, cynomolgus alpha2-Antiplasmin (cynomolgus (Macaca fascicularis), UniProt P08697 28-491 (human entry)); assay: ELISA (Example 3): antigen coated at 1 ug/ml, detection with anti-human lambda light chain-peroxidase and Amplex Red, RFU
T3 construct: Made in house in the same way as the rabbit protein; also called cynomolgus A2AP; Macaca fascicularis A2AP
T3 chain: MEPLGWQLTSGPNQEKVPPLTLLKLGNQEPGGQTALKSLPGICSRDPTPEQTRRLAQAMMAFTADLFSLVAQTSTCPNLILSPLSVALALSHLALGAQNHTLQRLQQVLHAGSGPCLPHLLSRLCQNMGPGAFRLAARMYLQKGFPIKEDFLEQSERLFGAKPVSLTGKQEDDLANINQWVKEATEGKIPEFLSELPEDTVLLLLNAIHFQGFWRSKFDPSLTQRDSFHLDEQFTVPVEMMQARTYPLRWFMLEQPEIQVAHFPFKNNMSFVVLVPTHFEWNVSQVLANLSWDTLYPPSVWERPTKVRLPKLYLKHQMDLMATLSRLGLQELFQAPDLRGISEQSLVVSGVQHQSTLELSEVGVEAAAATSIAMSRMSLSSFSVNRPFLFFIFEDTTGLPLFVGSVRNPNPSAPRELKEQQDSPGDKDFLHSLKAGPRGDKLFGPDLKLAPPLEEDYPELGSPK
Method: as §1, with “Buffer. 30 μl/well of this diluted detection antibody was added and plates are incubated for 1 hour at room temperature.” for “Buffer.”

[4] = target: T3, cynomolgus alpha2-Antiplasmin; assay: cell-based or functional assay

B1: TPP-12387 hIgG1 (antibody, V domains shown)
VH: EVQLLESGGGLVQPGGSLRLSCAASGFTFDDYAMSWVRQAPGKGLEWVSAIGTGGGTYYADSVKGRFTISRDNSKNTLYLQMNSLRAEDTAVYYCAREYYDSSGYYHLDYWGQGTLVTVSS
VL: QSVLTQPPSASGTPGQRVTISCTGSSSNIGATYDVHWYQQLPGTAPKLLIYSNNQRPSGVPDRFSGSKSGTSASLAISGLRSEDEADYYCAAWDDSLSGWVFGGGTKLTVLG
notes: Fully human IgG1 lambda from the BioInvent n-CoDeR Fab lambda library; parental lead antibody
EC50 (read off the curve) [1]: ~6 nM | EC50 (human alpha2-Antiplasmin): 130 nM | EC50 [2]: 6.2 nM | EC50 (read off the curve) [3]: ~100 nM | EC50 (read off the curve); function blocking assay (Example 4), RFU of plasmin substrate cleavage [4]: ~200 nM
